# In patent US20240084003A1 (SIMCERE ZAIMING PHARMACEUTICAL, published 2024):
# T1: human CD22, endogenous on Raji cells (human, UniProt P20273 20-847)
# T1 construct: whole, on cells; Endogenous protein of the Raji cell line
# T1 sequence (looked up): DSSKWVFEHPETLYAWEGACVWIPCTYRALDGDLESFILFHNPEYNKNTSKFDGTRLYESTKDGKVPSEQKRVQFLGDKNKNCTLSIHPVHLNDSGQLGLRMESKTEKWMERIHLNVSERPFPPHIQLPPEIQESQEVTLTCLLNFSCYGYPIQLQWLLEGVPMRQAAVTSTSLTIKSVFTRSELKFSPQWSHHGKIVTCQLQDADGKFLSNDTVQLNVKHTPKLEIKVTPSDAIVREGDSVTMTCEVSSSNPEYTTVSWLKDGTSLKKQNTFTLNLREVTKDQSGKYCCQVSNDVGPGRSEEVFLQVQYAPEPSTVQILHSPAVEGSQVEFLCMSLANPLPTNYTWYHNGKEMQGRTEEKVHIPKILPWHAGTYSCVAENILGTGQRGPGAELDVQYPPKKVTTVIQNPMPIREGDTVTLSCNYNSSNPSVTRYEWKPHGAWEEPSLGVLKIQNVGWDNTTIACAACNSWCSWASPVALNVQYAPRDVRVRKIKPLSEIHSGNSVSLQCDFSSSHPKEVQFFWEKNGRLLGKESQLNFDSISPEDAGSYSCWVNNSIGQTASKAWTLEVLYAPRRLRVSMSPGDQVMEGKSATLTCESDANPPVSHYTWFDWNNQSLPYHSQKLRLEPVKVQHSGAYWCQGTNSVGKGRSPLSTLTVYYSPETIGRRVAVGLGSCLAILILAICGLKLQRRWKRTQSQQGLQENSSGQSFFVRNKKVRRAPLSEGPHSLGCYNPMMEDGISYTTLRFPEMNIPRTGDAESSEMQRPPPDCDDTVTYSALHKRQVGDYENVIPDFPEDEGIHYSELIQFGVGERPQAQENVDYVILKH
# T2: murine CD22 protein (ACROBiosystems, SI2-M52Ha) (murine, UniProt P35329 22-708)
# T2 construct: extracellular domain; also called murine CD22-ECD; murine CD22-ECD-His
# T2 sequence (looked up): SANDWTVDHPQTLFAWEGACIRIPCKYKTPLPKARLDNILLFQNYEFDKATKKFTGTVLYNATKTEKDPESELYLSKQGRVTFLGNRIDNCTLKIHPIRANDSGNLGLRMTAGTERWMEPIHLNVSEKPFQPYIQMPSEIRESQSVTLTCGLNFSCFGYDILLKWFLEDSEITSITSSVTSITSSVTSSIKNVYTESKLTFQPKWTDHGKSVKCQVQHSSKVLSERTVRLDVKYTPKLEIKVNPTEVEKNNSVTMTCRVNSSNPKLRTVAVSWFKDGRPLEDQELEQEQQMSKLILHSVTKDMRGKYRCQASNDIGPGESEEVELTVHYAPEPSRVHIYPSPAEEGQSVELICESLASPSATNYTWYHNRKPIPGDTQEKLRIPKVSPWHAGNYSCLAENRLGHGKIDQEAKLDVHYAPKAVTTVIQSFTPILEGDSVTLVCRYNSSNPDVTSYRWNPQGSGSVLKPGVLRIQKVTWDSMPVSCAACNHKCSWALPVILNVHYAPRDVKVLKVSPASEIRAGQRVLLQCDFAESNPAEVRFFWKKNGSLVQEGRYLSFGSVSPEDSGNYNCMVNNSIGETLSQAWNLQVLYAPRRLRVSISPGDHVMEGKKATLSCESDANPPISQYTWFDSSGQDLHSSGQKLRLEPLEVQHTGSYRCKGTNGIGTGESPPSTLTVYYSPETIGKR
# T3: human CD22, full length, on CHO-K1-human CD22 2C4 cells (human, UniProt P20273 20-847)
# T3 construct: Full-length human CD22 (NCBI NP_001762.2) stably transfected into CHO-K1
# T3 sequence: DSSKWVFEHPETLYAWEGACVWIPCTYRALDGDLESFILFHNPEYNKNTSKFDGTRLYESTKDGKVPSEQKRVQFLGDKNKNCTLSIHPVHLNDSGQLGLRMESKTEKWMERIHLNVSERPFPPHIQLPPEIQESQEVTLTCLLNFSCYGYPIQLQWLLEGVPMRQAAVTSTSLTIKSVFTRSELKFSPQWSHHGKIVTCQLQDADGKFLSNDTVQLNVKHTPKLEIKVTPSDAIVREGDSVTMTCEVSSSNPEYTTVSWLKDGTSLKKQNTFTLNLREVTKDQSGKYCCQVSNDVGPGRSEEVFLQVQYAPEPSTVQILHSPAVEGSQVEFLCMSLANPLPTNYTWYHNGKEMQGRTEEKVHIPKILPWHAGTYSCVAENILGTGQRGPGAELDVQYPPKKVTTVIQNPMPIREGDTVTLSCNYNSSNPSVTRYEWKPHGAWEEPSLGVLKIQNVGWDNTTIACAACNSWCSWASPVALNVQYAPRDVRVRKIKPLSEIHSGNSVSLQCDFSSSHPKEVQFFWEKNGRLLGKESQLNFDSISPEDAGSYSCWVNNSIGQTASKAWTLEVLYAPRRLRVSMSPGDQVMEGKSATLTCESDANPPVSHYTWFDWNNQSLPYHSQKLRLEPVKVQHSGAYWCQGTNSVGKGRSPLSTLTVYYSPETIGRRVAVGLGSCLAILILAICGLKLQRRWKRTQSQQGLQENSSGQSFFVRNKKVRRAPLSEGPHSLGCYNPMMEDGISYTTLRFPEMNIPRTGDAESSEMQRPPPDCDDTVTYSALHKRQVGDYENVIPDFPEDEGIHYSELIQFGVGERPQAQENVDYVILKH
# Assays:
# [1] = molecular target: T1, human CD22, endogenous on Raji cells; assay: FACS, Raji cells
# Excerpt: (§1) The required cells were scale-up cultured in a T-75 cell culture flask to the logarithmic growth phase. For the adherent cell CHO-K1, the medium was aspirated, the cells were washed 2 times with PBS buffer, and then digested with trypsin. After the digestion was terminated, the cells were washed 2 times with PBS buffer. For suspension cell Raji, the medium supernatant was directly centrifuged and discarded, and the cell pellet was washed 2 times with PBS. After counting the cells in the previous step, the cell pellet was resuspended with [PBS+2% (w/w) BSA] blocking solution to 2×10⁶ cells/ml, and added to a 96-well FACS reaction plate at 50 μl/well, and then the chimeric antibody test sample was added at 50 μl/well, and incubated on ice for 2 hours. The mixture was centrifuged and washed 3 times with PBS buffer, Alexa Flour 488-labeled secondary antibody (purchased from Invitrogen, catalog number: A-11013) was added at 50 μl/well, and incubated on ice for 1 hour. The obtained mixture was centrifuged and washed 5 times with PBS, and FACS (FACS Canto™, purchased from BD Company) was used for detection and result analysis. Data analysis was performed by software (CellQuest) to obtain the mean fluorescence density (MFI)of the cells. And then software (GraphPad Prism8) was used for analysis, data fitting, and EC50 value calculation. […] The same method was used to detect the binding of the chimeric antibodies to endogenous CD22-negative cell MoLT4 cells (purchased from ATCC, CRL-1582) and CHO-K1 cells.
# [2] = molecular target: T2, murine CD22 protein (ACROBiosystems, …); assay: ELISA, coated murine CD22, 0.0001 nM Ab
# In short: (§2)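 Read-out is TMB absorbance after a 30 min room-temperature development stopped with 1.0 N HCl. It reflects chimeric antibody bound to plate-coated CD22 (2 μg/mL), detected with an HRP-labelled secondary antibody. Antibody and secondary incubations each ran 2 h at 37° C.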
# [3] = molecular target: T2, murine CD22 protein (ACROBiosystems, …); assay: ELISA, coated murine CD22, 100 nM Ab
# In short: as §2
# [4] = molecular target: T2, murine CD22 protein (ACROBiosystems, …); assay: ELISA, coated murine CD22, 0.001 nM Ab
# In short: as §2
# [5] = molecular target: T2, murine CD22 protein (ACROBiosystems, …); assay: ELISA, coated murine CD22, 10 nM Ab
# In short: as §2
# [6] = molecular target: T3, human CD22, full length, on …; assay: FACS, CHO-K1-human CD22 2C4 cells
# Excerpt: as §1
# [7] = molecular target: T2, murine CD22 protein (ACROBiosystems, …); assay: ELISA, coated murine CD22, 0.1 nM Ab
# In short: as §2
# [8] = molecular target: T2, murine CD22 protein (ACROBiosystems, …); assay: ELISA, coated murine CD22, 0.01 nM Ab
# In short: as §2
# [9] = molecular target: T2, murine CD22 protein (ACROBiosystems, …); assay: ELISA, coated murine CD22, 0.00001 nM Ab
# In short: as §2
Binder,EC50 [1] [pM],Maximum mean fluorescence intensity [1] [MFI],OD450 [2] [OD450],OD450 [3] [OD450],OD450 [4] [OD450],OD450 [5] [OD450],EC50 [6] [pM],Maximum mean fluorescence intensity [6] [MFI],OD450 [7] [OD450],OD450 [8] [OD450],OD450 [9] [OD450]
"F2.205.9 human-murine chimeric antibody (antibody, human IgG1, lambda, V domains shown, Chimeric, human IgG1 / lambda; VL tied by name) VH: QVTLKESGPGILQPSQTLSLTCSFSGFSLSTSGMGVGWIRQPSGKGLEWLAHIWWDDDEYYNPALKSRLTISKDTSKNQVFLKIANVDTADTATYYCARISIPYGYYDWFFDVWGTGTTVTVSA VL: QAVVTQESALTTSPGETVTLTCRSSTGAVTTRNYANWVQEKPDHLFTGLIGGTNNRAPGVPARFSGSLIGDKAALTITGAQTEDEAIYFCALWYSNHFIFGSGTKVTVLG",380,15500,0.05,0.07,0.05,0.06,720,40200,0.05,0.05,0.06
"F2.127.11 human-murine chimeric antibody (antibody, human IgG1, lambda, V domains shown, Chimeric, human IgG1 / lambda; VL tied by name) VH: QVTLKESGPGILQPSQTLSLTCSFSGFSLSTFGMGVGWIRQPSGKGLEWLAHIWWDDDKHYNPALKSRLTISKDTSRNQVFLKIANVDTADGATYFCARDNWVSSLDYWGQGTSVIVSS VL: QPVITQSSSASFSLGASAELTCTLSSQHSTYTIEWYQQQPLKPPKYVMGLKKDGSHSTGDGIPDRFSGSSSGADRYLSISNIQPEDEAIYICGVSDTIKEQFVYVFGGGTKVTVLG",590,24400,0.06,0.1,0.05,0.07,1220,58500,0.06,0.05,0.06
"F2.99.1 human-murine chimeric antibody (antibody, human IgG1, lambda, V domains shown, Chimeric, human IgG1 / lambda; VL tied by name) VH: QVTLKESGPGILQPSQTLSLTCSFSGFSLSTFPMGVGWIRQPSGKGLEWLAHIWWDDDEYYNPVLKSRLTISKDTSKKQVYLRIANVDTVDTATYYCTRANWDRWYFDVWGTGTTVTVSS VL: QLVLTQSSSASFSLGASAKLTCTLSRQHSAYTIEWYQQQPLKPPKYVMEVKKDGSHSTGDGIPDRFSGSSSGADRYLSISNIQPEDEAIYICGVGDTIKEHFVFGGGTKVTVLG",590,18100,0.05,0.07,0.05,0.06,830,44800,0.05,0.06,0.06

# Continued, values first:
EC50 [1] [pM],Maximum mean fluorescence intensity [1] [MFI],OD450 [2] [OD450],OD450 [3] [OD450],OD450 [4] [OD450],OD450 [5] [OD450],EC50 [6] [pM],Maximum mean fluorescence intensity [6] [MFI],OD450 [7] [OD450],OD450 [8] [OD450],OD450 [9] [OD450],Binder
800,19300,0.05,0.07,0.05,0.06,1150,50200,0.05,0.05,0.06,"F2.343.16 human-murine chimeric antibody (antibody, human IgG1, lambda, V domains shown, Chimeric, human IgG1 / lambda; VL tied by name) VH: QVQLKQSGPGLVQPSQSLSITCTVSGFSLTGYGVQWVRQSPGKGLEWLGVIWGGGGTDYNAAFISRLNIIKDNSKSQVFFKMNSLQADDTAIYYCARYSKYGHFDVWGTGTAVTVSS VL: QAVVTQESALTTSPGETVTLTCRSSTGAVTTSNYANWVQEKPDHLFTGLIGGTYNRVPGVPARFSGSLIGDKAALTITGAQTEDEAIYFCALWYSNHFWVFGGGTKLTVLG"
410,18600,0.06,0.09,0.05,0.06,820,42000,0.06,0.05,0.06,"F2.55.1 human-murine chimeric antibody (antibody, human IgG1, lambda, V domains shown, Chimeric, human IgG1 / lambda; VL tied by name) VH: QVTLKESGPGILQPSQTLSLTCSFSGFSLSTFPLGVGWIRQPSGKGLEWLAHVWWNDDDYYNPALKSRLTISKDTSNTRVFLSVASVDTAETATYYCARLNWDRWYFDVWGTGTTVTVSS VL: QLVLTQSSSASFSLGASAKLTCTLSSQHSAYTVEWYQQQPLKPPKYVMELKKDGSHSTGDGIPDRFSGSSSGADRYLSISNIQPEDEAIYICGVGDTVKEQFVFGGGTKVTVLG"
